The values below come from publication PMC4450073.

For experiment [1], the target named is Ad26.HVR5C hexon, on purified vector particles (human adenovirus type 26). Briefly: SPR; biotinylated virus coupled to a streptavidin (SA) chip (Ad5 482 RU, Ad26.HVR5C 484 RU), T200; 2-fold serial dilutions of hFX from 30 μg/mL injected at 30 μL/min; 10 mM HEPES pH 7.4, 150 mM NaCl, 5 mM CaCl2, 0.005% Tween20; 1:1 binding model. A general note: Surface plasmon resonance follows binding to a sensor surface in real time, without labels.

The target of experiment [2] is adenovirus type 5 (Ad5) hexon, on purified Ad5 vector particles (human adenovirus type 5) (UniProt P04133). Described as above.

For “human coagulation factor X (natural protein)”, in experiment [1], the equilibrium dissociation constant (Kd) (commonly the constant that tells how readily two partners part at equilibrium) was found to be 3.46 nM; the koff (as a rule, a measure of how fast the partners let go of each other) turned out to be 0.0107 s⁻¹; the kon (usually the second-order rate constant of association) worked out at 3.08e+06 M⁻¹ s⁻¹. In experiment [2], this substance showed a Kd of 2.33 nM, a koff of 0.00305 s⁻¹ and a kon of 1.31e+06 M⁻¹ s⁻¹.
